The record followed here is PMC5247666, “The Production and Utilization of GDP-glucose in the Biosynthesis of Trehalose 6-Phosphate by Streptomyces venezuelae*” (The Journal of Biological Chemistry, 2016).

In general, stoichiometry N refers to a count of units in the complex or per binding partner. A word on the Km: it is the concentration of substrate that gives half-maximal velocity. What is called kcat is the maximal rate divided by the concentration of active sites. Usually kcat/Km stands for the second-order rate constant that governs catalysis at low substrate concentration.

Data set [1] addresses Streptomyces venezuelae OtsA (trehalose-6-phosphate synthase) (Streptomyces venezuelae). The experiment in a line: SEC; Superdex 200 10/300 GL calibrated with size standards; 20 mM HEPES pH 7.0, 10 mM MgCl2, 100 mM NaCl; size of the self-associated form. Background: SEC sorts molecules by how far they enter the pores of the column.
The target in the next data set is T1, SVEN_3027 (Streptomyces venezuelae, UniProt F2R7M8).
T1 construct: synthetic gene, E. coli BL21(DE3)pLysS
T1 sequence (F2R7M8 entry or part of it): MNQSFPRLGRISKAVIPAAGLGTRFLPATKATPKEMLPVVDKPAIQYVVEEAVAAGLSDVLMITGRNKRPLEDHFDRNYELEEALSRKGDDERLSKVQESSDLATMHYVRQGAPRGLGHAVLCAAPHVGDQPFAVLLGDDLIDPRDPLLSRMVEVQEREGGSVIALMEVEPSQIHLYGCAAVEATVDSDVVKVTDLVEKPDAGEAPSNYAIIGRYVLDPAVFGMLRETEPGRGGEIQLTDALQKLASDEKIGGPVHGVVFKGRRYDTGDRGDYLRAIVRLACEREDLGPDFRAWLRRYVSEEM
Nature of the data set: stopped coupled assay of pyrophosphate (inorganic pyrophosphatase, malachite green). As to conditions: glucose 1-phosphate as co-substrate. In kind it is biochemical.

Substrate in data set [2]: Nc1nc2c(ncn2[C@@H]2O[C@H](COP(=O)(O)OP(=O)(O)O[C@H]3O[C@H](CO)[C@@H](O)[C@H](O)[C@H]3O)[C@@H](O)[C@H]2O)c(=O)[nH]1
The experiment in a line: continuous coupled assay of NDP release (pyruvate kinase/lactate dehydrogenase). The note with it: glucose 6-phosphate 5 mM fixed. In kind it is biochemical, Streptomyces venezuelae. The text has this:
(§1) continuous coupled assay of NDP release (pyruvate kinase/lactate dehydrogenase) on S. venezuelae OtsA

Substrate in data set [3]: Nc1ncnc2c1ncn2[C@@H]1O[C@H](COP(=O)(O)OP(=O)(O)O[C@H]2O[C@H](CO)[C@@H](O)[C@H](O)[C@H]2O)[C@@H](O)[C@H]1O
The data set is described as above. In kind it is biochemical, Streptomyces venezuelae. As to conditions: glucose 6-phosphate 5 mM fixed.
Text: as §1

Substrate in data set [4]: O=P(O)(O)O[C@H]1O[C@H](CO)[C@@H](O)[C@H](O)[C@H]1O
Nature of the data set: stopped coupled assay of pyrophosphate (inorganic pyrophosphatase, malachite green). Type of data set: biochemical, Streptomyces venezuelae. As to conditions: GTP 0.3 mM fixed. The text has this:
(§2) stopped coupled assay of pyrophosphate (inorganic pyrophosphatase, malachite green) on SVEN_2781

Substrate in data set [5]: Nc1nc2c(ncn2[C@@H]2O[C@H](COP(=O)(O)OP(=O)(O)OP(=O)(O)O)[C@@H](O)[C@H]2O)c(=O)[nH]1
The description is as above. In kind it is biochemical, Streptomyces venezuelae. The note with it: glucose 1-phosphate 1 mM fixed.
Text: as §2

Substrate in data set [6]: O=P(O)(O)O[C@H]1O[C@H](CO)[C@@H](O)[C@H](O)[C@@H]1O
The data set is described as above. In kind it is biochemical, Streptomyces venezuelae. As to conditions: GTP 0.3 mM fixed.
Text: as §2

Substrate in data set [7]: O=P(O)(O)O[C@H]1O[C@H](CO)[C@@H](O)[C@H](O)[C@H]1O
Described as above. Type of data set: biochemical, Streptomyces venezuelae. As to conditions: GTP 2 mM fixed. The text has this:
(§3) stopped coupled assay of pyrophosphate (inorganic pyrophosphatase, malachite green) on SVEN_3972

Substrate in data set [8]: O=P(O)(O)OP(=O)(O)OP(=O)(O)OC[C@H]1O[C@@H](n2cnc3c(O)ncnc32)[C@H](O)[C@@H]1O
The description is as above. The note with it: mannose 1-phosphate 2 mM fixed. In kind it is biochemical, Streptomyces venezuelae.
Text: as §3

Substrate in data set [9]: Nc1nc2c(ncn2[C@@H]2O[C@H](COP(=O)(O)OP(=O)(O)OP(=O)(O)O)[C@@H](O)[C@H]2O)c(=O)[nH]1
The data set is described as above. In kind it is biochemical, Streptomyces venezuelae. As to conditions: mannose 1-phosphate 2 mM fixed.
Text: as §3

Substrate in data set [10]: O=P(O)(O)O[C@H]1O[C@H](CO)[C@@H](O)[C@H](O)[C@@H]1O
The data set is described as above. As to conditions: ITP 1 mM fixed. In kind it is biochemical, Streptomyces venezuelae.
Text: as §3

Data set [11] concerns the molecule itself. Nature of the data set: SEC; Superdex 200 16/600; 50 mM MOPS pH 8.0, 0.025 mM EDTA, 5% (w/v) sucrose; size of the self-associated form.

For “Streptomyces venezuelae OtsA (trehalose-6-phosphate synthase) (enzyme)”, in [1], the stoichiometry N was found to be 2.

Consider `Cc1cn([C@H]2C[C@H](O)[C@@H](COP(=O)(O)OP(=O)(O)OP(=O)(O)O)O2)c(=O)[nH]c1=O` [dTTP], for which the “stopped coupled assay of pyrophosphate (inorganic pyrophosphatase, malachite gre)” value on SVEN_3027 is on record as “donor substrate preference was UTP > dTTP ≫ CTP > GTP > ATP > ITP”.

For the molecule `O=c1ccn([C@@H]2O[C@H](COP(=O)(O)OP(=O)(O)OP(=O)(O)O)[C@@H](O)[C@H]2O)c(=O)[nH]1` [UTP], the “stopped coupled assay of pyrophosphate (inorganic pyrophosphatase, malachite gre)” value on SVEN_3027 is recorded as “donor substrate preference was UTP > dTTP ≫ CTP > GTP > ATP > ITP”.

B1: S. venezuelae OtsA (Streptomyces venezuelae ATCC 10712) (protein)
chain: MASVLVASNRGPVSYVRGEDGELDARRGGGGLVSGLSAVSSQDSLWVCAALGEGDREAVRRGIGEPGVRMLDIAPDVYADAYNGIANSVLWFLHHHLYDIPREPVFDAAFRHRWEAYRAYNRAFAEALAAAADEGAAVLVQDYHLALVPGQLRELRPDLRIGHFTHTPWASPEYFRMLPADIGDELLRGMLGADELGFHTSAWASAFLSCAGGEQPRTRVRVHPLGVDAEELRALAHRPQVDERLARLREEVGDRKTIVRVDRTELSKNILRGLLAYRELLTVHPEWRDRVVHLASAYPSRQDLAAYRAYTASVTELAAEINAEFGTADWQPVLVSVEDDFTRSLAAYRLADVALVNPVRDGMNLVAKEIPVVSDAGCALVLSTGAGAYEELKEDALTVHPYDVSETAEALHTALTMPPPERADRTKRLASAATALPPQRWFLNQLEGLSDA
notes: synthetic gene, E. coli SoluBL21; 51 kDa with tag; homodimer (109 kDa by SEC)
Take B1: in data set [2], the Km was 120 ± 20 µM, the turnover number (kcat) amounted to 139 ± 8 s⁻¹ and the kcat/Km came out at 1.14e+06 ± 223000 M⁻¹ s⁻¹. In [3], the Michaelis constant (Km) stood at 440 ± 50 µM, the kcat is 29 ± 1 s⁻¹ and the specificity constant (kcat/Km) worked out at 67000 ± 7000 M⁻¹ s⁻¹.

B2: SVEN_2781 (Streptomyces venezuelae ATCC 10712) (protein)
chain: MTEAILLVGGKGTRLRPLTVNTPKPMVPAAGVPFLTHQLARARAAGVEHIVLATSYLAEVFEPHFGDGSSLGLSLEYVTEEEPLGTGGAIRNVASRLHSGPDDPVLIFNGDILTGLDIQALVATHSSSGADVSLHLTRVEDPRAFGLVPTDATGRVTAFLEKPQTPEEIVTDQINAGAYVFRRSVIDTIPAGRPVSVERETFPDLLASGAHLQGMVDSTYWLDLGTPQAFVRGSADLVLGRAPSPAVPGRCGDRLVLPSARVAPDAKLTGGTVVGADAVVGDGARITGSTLLAGAVVEPGAVITDSLIGAGARIGARSVLTGAVIGDGAQVGPDNELRDGVRVWCDATLPAGAVRFSSDQ
notes: synthetic gene, E. coli BL21(DE3); active form dimer
Turning to B2, in data set [4], the Michaelis-Menten constant (Km) turned out to be 1400 ± 100 µM, the turnover number (kcat) was found to be 0.171 ± 0.004 s⁻¹ and the kcat/Km came out at 120 ± 10 M⁻¹ s⁻¹. In data set [5], the Km was 260 ± 20 µM, the catalytic constant (kcat) turned out to be 0.159 ± 0.002 s⁻¹ and the kcat/Km was determined as 610 ± 40 M⁻¹ s⁻¹. Also, in [6], the Michaelis constant (Km) was 2700 ± 300 µM, the catalytic constant (kcat) was 0.167 ± 0.008 s⁻¹ and the specificity constant (kcat/Km) came to 60 ± 10 M⁻¹ s⁻¹.

B3: Streptomyces venezuelae SVEN_3972 (ITP-mannose pyrophosphorylase) (enzyme, UniProt F2RFV6 1-238, looked up)
chain: MHTSPTQAVVLAGGQGSRLRPYTDDRPKPMVEIPGTGTPIIGHQLSWLAAEGVTDAVVSCGHLAEVLQEWLEGADLPLKVTTVVETEPLGRGGGLKYAAAHLPAPDQPWYATNGDIWTRFSLREMAAFHDERDALATLALARPRIPWGAVETDTFGHITDFIEAPPSPFLINAGVYVFSAAFTELLPDLGDHERTTFPRLARERRLAGFPLPQGAYWRAIDTAKDLTEAAKELAAQRG
notes: The His6 tag can be cleaved by TEV protease; also called SVEN15_3882
B3: the Km in data set [7] amounted to 7100 ± 800 µM; in [8] it was 170 ± 20 µM; in data set [9], 470 ± 30 µM; in [10], 860 ± 80 µM. The kcat in data set [7] is 0.014 ± 0.001 s⁻¹; in data set [8] it was 0.049 ± 0.001 s⁻¹; in data set [9] it was 0.0156 ± 0.0004 s⁻¹; in data set [10] it was 0.0119 ± 0.0004 s⁻¹. The kcat/Km was found to be 2 ± 0.3 M⁻¹ s⁻¹ in data set [7], 300 ± 30 M⁻¹ s⁻¹ in data set [8], 33 ± 2 M⁻¹ s⁻¹ in data set [9] and 14 ± 1 M⁻¹ s⁻¹ in [10]. Also, the “stoichiometry N” value in data set [11] is 2.
